Reference: article PMC7054171

Biological target: GST tagged Cdc42 Q61L (human) (UniProt P60953)
Experiment: pull-down

GST tagged Cdc42 Q61L (human), sequence (P60953 whole entry Q61L): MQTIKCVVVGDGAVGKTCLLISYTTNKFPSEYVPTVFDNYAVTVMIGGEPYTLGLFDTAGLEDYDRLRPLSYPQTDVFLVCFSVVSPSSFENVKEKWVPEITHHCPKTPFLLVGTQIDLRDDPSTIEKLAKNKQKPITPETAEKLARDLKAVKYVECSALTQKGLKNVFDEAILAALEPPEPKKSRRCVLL

fold reduction in binding against the lit state variant: > 5 fold
Substance: mVenus-Z-lock-WASP dark (zDK2-GS0-CBD-LOV2, dark state variant) (from UniProt P42768 230-288; O49003 404-546) (designed binder)
